Columns and labels:
[1] = ATP dose-response of purified mScarlet-ε-NanoLuc, luminescence BRET ratio on microplate reader; type: binding; conditions: purified protein; for BRET ratio: n=3
Text: (§1) Protein Engineering and Library Screen. Sensors were constructed by Gibson Assembly using the NEB HiFi kit, sub-cloned into the pRSETB vector for expression as His-tagged protein in BL21(DE3) E. coli, and purified by nickel-affinity chromatography. CeNL/pcDNA3 was a gift from Takeharu Nagai (Addgene plasmid #85199), pcDNA3-mNeonGreen was a gift from Richard Day (Indiana University), pCytERm-mScarlet_N1 was a gift from Dorus Gadella (Addgene plasmid #85066), and pBad-HisB-RRvT (Addgene plasmid #87364) and pBad-HisB-GRvT (Addgene plasmid #87363) were gifts from Robert Campbell. The fluorescence and luminescence ATP dose-response curves for purified protein solutions were measured on a BioTek Synergy H4 multi-mode microplate reader at ambient temperature. Luminescence was also measured using a Spectral Instruments Ami HT. Plasmids generated in this study are distributed via Addgene.
The fluorescence and luminescence of purified sensor proteins were investigated in assay buffer (50 mM MOPS-KOH, 50 mM KCl, 0.5 mM MgCl2, and 0.05% Triton X-100, pH 7.3) in a 96-well plate using a BioTek Synergy H4 multi-mode microplate reader at ambient temperature. For FRET library screening, 420/50 and 485/20 nm excitation filters and 485/20, 528/20, and 620/15 nm emission filters were used. For BRET screening, 20 μM coelenterazine-h was used as a substrate of NanoLuc and 450/50, 485/20, 528/20, and 620/15 nm emission filters were used. For characterization of mScarlet-ε-NanoLuc, 20 μM coelenterazine-h was applied to a reaction solution containing the purified sensor protein and 0-10 mM ATP in assay buffer. Luminescence spectra were scanned from 400 to 650 nm. Emissions of NanoLuc and mScarlet were measured using 450/50 and 620/15 nm emission filters, respectively, and the BRET efficiency was obtained by calculating the emission ratio of mScarlet/NanoLuc. Luminescence was also measured using a Spectral Instruments Ami HT with 510/20 and 650/20 nm emission filters (binning 2×2, FOV 25 cm, f-stop 1.2). Purified mScarlet-ε-NanoLuc protein in assay buffer with 0-10 mM ATP was imaged with a 1 sec exposure time after the addition of 20 μM coelenterazine-h. For measurements at different concentrations (1-100 nM) of mScarlet-ε-NanoLuc protein, the purified protein was mixed with 10 mM ATP or 0 mM ATP and imaged after the addition of 20 μM coelenterazine-h with a 5 sec exposure time for a total 30 min. Regions of interest were drawn over each well for all filter sets, and the average radiance was determined.

[2] = Library screen: FRET and BRET dynamic range of purified sensors after addition of saturating ATP; type: binding
Text: as §1, with “Plasmids generated in this study are distributed via Addgene.” left out
(§2) The fluorescence and luminescence of purified sensor proteins were investigated in assay buffer (50 mM MOPS-KOH, 50 mM KCl, 0.5 mM MgCl2, and 0.05% Triton X-100, pH 7.3) in a 96-well plate using a BioTek Synergy H4 multi-mode microplate reader at ambient temperature. […] Luminescence spectra were scanned from 400 to 650 nm. Emissions of NanoLuc and mScarlet were measured using 450/50 and 620/15 nm emission filters, respectively, and the BRET efficiency was obtained by calculating the emission ratio of mScarlet/NanoLuc. […]

[3] = Ratiometric BRET imaging of purified mScarlet-ε-NanoLuc protein on SI Ami HT whole-animal imaging system; type: binding; conditions: protein solutions
Text: as §1, with “Plasmids generated in this study are distributed via Addgene.” left out
as §2

[4] = test system: HEK293A cells; assay: Live single-cell BRET microscopy with metabolic inhibition; type: cell-based; conditions: metabolic inhibition with 10 mM 2DG and 2.5 μM oligomycin A, ambient temperature
Procedure: Live single-cell microscopy. The sensor genes were sub-cloned into the GW1 mammalian expression vector, and HEK293A cells were transfected by the calcium phosphate method. Cells were imaged with 30 second exposure times and 2 minute imaging interval on an Olympus IX83 microscope with a 40× 1.35 NA Apo oil objective, an Andor Xyla 4.2 sCMOS camera at 2-by-2 pixel binning, and 470/24 nm and 632/60 nm emission filters. Just prior to the addition of furimazine, well volume was exchanged twice with imaging media without glucose. After adding furimazine, a three point baseline was acquired. […] Cells were imaged for ˜30 minutes until luminescence decayed to background. Image backgrounds were subtracted before calculating the ratio images of the luminescence channels using ImageJ. […]
After removing the plate from the incubator, cell growth media was exchanged for imaging media (15 mM HEPES, 120 mM NaCl, 3 mM KCl, 3 mM NaHCO3, 1.25 mM NaH2PO4, 10 mM glucose, 2 mM CaCl2, 1 mM MgCl2). Imaging regions were determined using mScarlet fluorescence and DIC. […] Cells were imaged until luminescence decayed to background (20-30 minutes). Image backgrounds were subtracted (rolling ball radus 100 pixels) before calculating the ratio images of the luminescence channels using ImageJ. […] For FIG. 3, binary masks were generated using channel luminescence to remove pixels in ratio image corresponding to background. […]

[5] = test system: HEK293A cells; assay: Bioluminescence imaging of adherent sensor-expressing cells in Spectral Ami, glucose vs metabolic inhibitors; type: cell-based; conditions: for mScarlet-ε-NanoLuc ratio signal: n=6
Procedure: HEK293A cells were transfected with plasmids carrying mScarlet-ε-NanoLuc by calcium phosphate method. One day after transfection, cells were passaged onto a 96-well plate at different cell densities from 1,250 to 20,000 cells per well. After an additional 24-48 hours, imaging was performed using a spectral Ami with 510/20 nm and 650/20 nm filters (5 sec exposure time, binning 2×2, FOV 25 cm, f-stop 1.2) immediately after the addition of 20 μM coelenterazine-h.
We first validated that we could measure differences in energy metabolism using adherent cell cultures. HEK293A cells expressing mScarlet-ε-NanoLuc were seeded at different densities, from 62,500 cells/cm^2 down to 4,000 cell/cm^2 to determine the sensitivity of detection in the Spectral Ami system. […] Thus, the sensor effectively detects metabolic differences in live cells in a dish within the animal imager.

[6] = Whole-animal imaging of purified sensor protein placed subcutaneously in mice; type: in vivo, Balb/c mice; conditions: 10 mM vs 0 mM ATP, subcutaneous hindlimb, unshaved mice, n=3
Procedure: (§3) Animal Imaging System. All animal procedures were performed in strict accordance with recommendations provided in the National Institutes of Health (NIH) Guide for the Care and Use of Laboratory Animals, according to protocols approved by the Purdue Animal Care and Use Committee and the Purdue University Laboratory Animal Program to minimize pain and suffering. Male and female adult Balb/c and FVB mice were sacrificed and then injected with protein solution or live cells subcutaneously in the hind limb area. NanoLuc substrate, either 20 μM coelenterazine-h or 0.5× Promega Nano-Glo furimazine solution, was mixed with the sample just prior to injection. Protein, cells, and animals were imaged at ambient temperature. […] Therefore, in this study we used the SI Ami HT equipped with a 510/20 nm and 650/20 nm emission filters for all subsequent experiments.
For imaging of purified protein in mice, mScarlet-ε-NanoLuc protein pre-equilibrated with 0 mM or 10 mM ATP was mixed with 20 μM coelenterazine-h. The reaction mixture was enclosed in a custom plastic tube and placed subcutaneously in the left (0 mM ATP) and right (10 mM ATP) hindlimb areas of adult Balb/c mice carcass. The sequential imaging was immediately performed using a spectral Ami with 510/20 and 650/20 nm filters (30 sec exposure time, binning 2×2, FOV 25, f-stop 1.2). […]

[7] = test system: HEK293A cells; assay: Whole-animal imaging of sensor-expressing live cell suspensions injected subcutaneously in mice; type: in vivo; conditions: 10^6 live cells subcutaneous, unshaved adult FVB mice, n=6
Procedure: as §3
For imaging of purified protein in mice, mScarlet-ε-NanoLuc protein pre-equilibrated with 0 mM or 10 mM ATP was mixed with 20 μM coelenterazine-h. […]
We next carried out ratiometric imaging of live cells injected in whole animals. […] The total luminescence intensity provides an indicator of the total protein expression level, and critically we observed that the BRET ratio was dependent on the metabolic condition only and was independent of the level of luminescence intensity (FIG. 5).

B1: mScarlet-ε-NanoLuc: BRET-only ATP sensor: mScarlet (N-terminus), B. subtilis ε subunit, NanoLuc (C-terminus); SEQ ID NO:1 (protein)
chain: MVSKGEAVIKEFMRFKVHMEGSMNGHEFEIEGEGEGRPYEGTQTAKLKVTKGGPLPFSWDILSPQFMYGSRAFTKHPADIPDYYKQSFPEGFKWERVMNFEDGGAVTVTQDTSLEDGTLIYKVKLRGTNFPPDGPVMQKKTMGWEASTERLYPEDGVLKGDIKMALRLKDGGRYLADFKTTYKAKKPVQMPGAYNVDRKLDITSHNEDYTVVEQYERSEGRHSTGRHIDMKTVKVNITTPDGPVYDADIEMVSVRAESGDLGILPGHIPTKAPLKIGAVRLKKDGQTEMVAVSGGTVEVRPDHVTINAQAAETAEGIDKERAEAARQRAQERLNSQSDDTDIRRAELALQRALNRLDVAGKANEFMLEDFVGDWRQTAGYNLDQVLEQGGVSSLFQNLGVSVTPIQRIVLSGENGLKIDIHVIIPYEGLSGDQMGQIEKIFKVVYPVDDHHFKVILHYGTLVIDGVTPNMIDYFGRPYEGIAVFDGKKITVTGTLWNGNKIIDERLINPDGSLLFRVTINGVTGWRLCERILA
modifications: mScarlet-e-NanoLuc
BRET ratio ([1]; 0 mM ATP): 0.0063±0.0001 | BRET ratio ([1]; 10 mM ATP): 0.0324±0.009 | BRET ratio stability over time during luminescence intensity decay [1]: stable over time | maximal change in BRET ratio upon ATP saturation [1]: greater than 4 fold | Fold-Change in Ratio BRET ([2]; after addition of saturating ATP, purified protein, 20 μM coelenterazine-h): 5.12 ± 0.18 | change in the BRET ratio upon saturation with ATP ([2]; purified sensor, zero to saturating ATP): 5 fold | dynamic range in ATP dose response [3]: 5 fold | change in the absolute BRET ratio [4]: −71% | difference in ratio signal, glucose vs metabolic inhibitors [5]: ~3 fold | mScarlet-ε-NanoLuc ratio signal ([5]; addition of glucose): 0.29±0.04 | mScarlet-ε-NanoLuc ratio signal ([5]; metabolic inhibitors 2DG and oligomycin A): 0.11±0.01 | difference in the ratio with vs without ATP imaged through tissue and fur [6]: greater than 3 fold | ratio difference between glucose and inhibitor-treated cells through tissue and fur, compared with cell suspensions in a dish [7]: same ratio difference

Reference: patent publication US20200400655A1, “RATIOMETRIC BRET MEASUREMENTS OF ATP WITH A GENETICALLY-ENCODED LUMINESCENT SENSOR” (Purdue Research Foundation, priority 2019, published 2020)
